These are literature values, as cited in PMC8773166.

The target of this series is calmodulin (UniProt P0DP23).

In general, Kd refers to a measure of binding affinity in units of concentration. For the substance “NCX1 XIP peptide XIP (from UniProt P32418)”, the Kd is 200 nM.
